Molecular target: PI3K p85 SH2 domains
Experiment: SPR (BIAcore 3000), PI3K p85 SH2 domains
Assay type: binding
Settings: HBS pH 7.4, 37°C, n = 3
Experimental: Experiments were conducted on a BIAcore™ 3000 in HBS buffer (0.01 M HEPES, pH 7.4, containing 0.15 M NaCl, 3 mM EDTA, and 0.005% v/v P-20, GE Life Sciences, Amersham, UK). Streptavidin was coupled to a research grade CM5 chip (GE Life Sciences, Amersham, UK) as previously described, [13]. Protein-peptide interactions were carried out a rate of 10 µl/min at a constant temperature of 37°C to more accurately reflect physiological conditions. Biotinylated peptides were bound to the streptavidin-coated CM5 chips at 37°C to between 25–50 RU [14]. Purified monomeric SH2 domains were passed over the immobilised peptides at a range of concentrations. Anti-phosphotyrosine monoclonal antibody (Sigma, Poole, U.K.) was passed over the chip to saturation at the end of each experiment to verify peptide coverage on the chip. Binding affinities for the single ITIM/ITSM peptides were determined by plotting equilibrium binding measurements (RU) against SH2 domain protein concentration (Origin 8, OriginLab, MA, USA). KD was defined as the concentration of SH2 protein that gave half maximal binding to the peptide. For the 60-mer peptides, SH2 domains were passed over the chip surface at 50 µl/min. KD was determined as Koff/Kon, which were determined using both GraphPad Prism 5.0 (GraphPad, La Jolla, CA, USA) and BIAevaluation Software (GE Life Sciences, Amersham,UK). […]

- Kd: ~1000 nM
B1: G6B-b: inhibitory platelet receptor; affinities measured with its dual phosphopeptide (protein, UniProt O95866 18-241, looked up)
Megakaryocyte and platelet …: NPGASLDGRPGDRVNLSCGGVSHPIRWVWAPSFPACKGLSKGRRPILWASSSGTPTVPPLQPFVGRLRSLDSGIRRLELLLSAGDSGTFFCKGRHEDESRTVLHVLGDRTYCKAPGPTHGSVYPQLLIPLLGAGLVLGLGALGLVWWLHRRLPPQPIRPLPRFAPLVKTEPQRPVKEEEPKIPGDLDQEPSLLYADLDHLALSRPRRLSTADPADASTIYAVVV
